Data as given in US6447996.

Target: human galanin receptor GalR1 (human) (UniProt P47211)
Test: competition with 5x10^-11M [125I]galanin on membranes of Cos1 cells transfected with GalR1; Cheng-Prusoff

Chain of UniProt P47211 (P47211 other isoform, or with tags, fused parts or gaps): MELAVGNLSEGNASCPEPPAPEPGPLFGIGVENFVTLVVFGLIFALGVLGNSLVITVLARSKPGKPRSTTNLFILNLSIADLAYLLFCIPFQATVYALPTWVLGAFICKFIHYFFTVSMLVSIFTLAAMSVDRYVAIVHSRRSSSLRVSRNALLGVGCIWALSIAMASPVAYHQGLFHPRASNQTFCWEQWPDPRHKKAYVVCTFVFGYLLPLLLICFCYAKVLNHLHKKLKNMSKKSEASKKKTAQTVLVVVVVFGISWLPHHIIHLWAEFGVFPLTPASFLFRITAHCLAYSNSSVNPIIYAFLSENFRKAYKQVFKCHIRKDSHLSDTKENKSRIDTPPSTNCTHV

## galanin 2-29 (peptide)
  Ki: 115 nM
